Test [1] concerns the target T1, human LEPR Ig-CRH2-FNIII-MMH (human, UniProt P48357 330-839, limits assumed).
T1 construct: domain: Ig-CRH2-FNIII
T1 sequence (looked up): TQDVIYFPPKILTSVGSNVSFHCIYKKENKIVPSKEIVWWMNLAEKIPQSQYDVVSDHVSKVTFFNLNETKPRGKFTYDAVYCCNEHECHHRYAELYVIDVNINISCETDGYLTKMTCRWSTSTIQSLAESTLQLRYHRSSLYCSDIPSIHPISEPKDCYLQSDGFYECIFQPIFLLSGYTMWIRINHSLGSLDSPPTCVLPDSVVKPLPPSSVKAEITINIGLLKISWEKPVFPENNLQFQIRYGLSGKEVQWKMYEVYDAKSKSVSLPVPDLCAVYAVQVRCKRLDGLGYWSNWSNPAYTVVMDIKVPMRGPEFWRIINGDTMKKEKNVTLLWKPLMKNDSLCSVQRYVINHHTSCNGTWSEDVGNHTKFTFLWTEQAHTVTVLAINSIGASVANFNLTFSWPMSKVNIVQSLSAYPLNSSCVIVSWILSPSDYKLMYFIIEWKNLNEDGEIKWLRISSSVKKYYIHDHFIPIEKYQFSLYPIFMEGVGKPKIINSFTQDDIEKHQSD
Nature of the test: Luminex, myc-captured protein on beads. How it is done:
(§1) Aliquots of microspheres with immobilized anti-myc monoclonal antibodies, prepared as described above, were added individually to 1 mL of the each of these protein supernatants. The microspheres were gently mixed, incubated for two hours at 25° C., washed twice with 1 mL of DBPS, centrifuged to remove the supernatant and finally resuspended in 1 mL of DPBS buffer. […] of anti-myc IgG coupled microspheres from individual reactions with full length human LEPR and with each of the human LEPR domain proteins were withdrawn and mixed together in 3.6 mL of PBS+20 mg/mL BSA+0.05% sodium azide (blocking buffer).
(§2) From this mixed pool, 75 μL of microspheres were plated per well on a 96 well filter plate (Millipore, Cat. No: MSBVN1250) and mixed with 25 μL of individual anti-human LEPR monoclonal antibodies (0.5 or 5 μg/mL), incubated for two hours at 25° C. and then washed twice with 200 μL of DPBS with 0.05% Tween 20 (washing buffer). […] After 30 minutes, the samples were washed twice with 200 µL of washing buffer and resuspended in 150 μL of wash buffer. The Median Fluorescence intensity (MFI) of the microspheres was measured in a Luminex Analyzer.

The target of test [2] is T2, human LEPR CRH1-Ig (D2,D3)-MMH (human, UniProt P48357 230-427, limits assumed).
T2 construct: domain: CRH1-Ig (D2,D3)
T2 sequence (looked up): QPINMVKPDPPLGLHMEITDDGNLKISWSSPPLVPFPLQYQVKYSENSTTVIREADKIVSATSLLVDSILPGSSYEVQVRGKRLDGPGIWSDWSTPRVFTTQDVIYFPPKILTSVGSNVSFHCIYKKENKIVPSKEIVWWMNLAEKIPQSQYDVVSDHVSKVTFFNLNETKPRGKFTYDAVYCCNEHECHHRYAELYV
Briefly: Luminex, myc-captured protein on beads. How it is done: as §1, §2

Test [3] addresses T3, extracellular domain portion of LEPR protein expressed with a C-terminal human Fc tag (hLEPR.hFc) (human).
T3 construct: also called dimeric human LEPR
Nature of the test: blocking ELISA, hLeptin coated. How it is done:
These antibody-protein or protein-protein complexes were then incubated for 1.5 hour at room temperature (RT). […] Samples were developed with a TMB solution (BD Biosciences, #555214; substrate A and B mixed at 1:1 ratio as per manufacturer's instructions) to produce a colorimetric reaction and then neutralized with 1M sulfuric acid before measuring absorbance at 450 nm on a Victor X5 plate reader.
Data analysis was performed using a sigmoidal dose-response model within Prism™ software (GraphPad).
(In general: In an ELISA, binding on a coated surface is turned into a signal by an enzyme label.)

In test [4] the target is extracellular domain of Macaca fascicularis LEPR (amino acids 22-837 of XP_005543194.1, T827A) fused with the … (Macaca fascicularis; human). Briefly: cell-based or functional assay.
Test [5] addresses T4, full length human LEPR (amino acids 1-1165 of P48357, Isoform B) on cells (human, UniProt P48357 22-1165).
T4 construct: also called HEK293/Stat3-luc/hLEPR-FL; HEK293/Stat3-hLEPR-FL
T4 sequence: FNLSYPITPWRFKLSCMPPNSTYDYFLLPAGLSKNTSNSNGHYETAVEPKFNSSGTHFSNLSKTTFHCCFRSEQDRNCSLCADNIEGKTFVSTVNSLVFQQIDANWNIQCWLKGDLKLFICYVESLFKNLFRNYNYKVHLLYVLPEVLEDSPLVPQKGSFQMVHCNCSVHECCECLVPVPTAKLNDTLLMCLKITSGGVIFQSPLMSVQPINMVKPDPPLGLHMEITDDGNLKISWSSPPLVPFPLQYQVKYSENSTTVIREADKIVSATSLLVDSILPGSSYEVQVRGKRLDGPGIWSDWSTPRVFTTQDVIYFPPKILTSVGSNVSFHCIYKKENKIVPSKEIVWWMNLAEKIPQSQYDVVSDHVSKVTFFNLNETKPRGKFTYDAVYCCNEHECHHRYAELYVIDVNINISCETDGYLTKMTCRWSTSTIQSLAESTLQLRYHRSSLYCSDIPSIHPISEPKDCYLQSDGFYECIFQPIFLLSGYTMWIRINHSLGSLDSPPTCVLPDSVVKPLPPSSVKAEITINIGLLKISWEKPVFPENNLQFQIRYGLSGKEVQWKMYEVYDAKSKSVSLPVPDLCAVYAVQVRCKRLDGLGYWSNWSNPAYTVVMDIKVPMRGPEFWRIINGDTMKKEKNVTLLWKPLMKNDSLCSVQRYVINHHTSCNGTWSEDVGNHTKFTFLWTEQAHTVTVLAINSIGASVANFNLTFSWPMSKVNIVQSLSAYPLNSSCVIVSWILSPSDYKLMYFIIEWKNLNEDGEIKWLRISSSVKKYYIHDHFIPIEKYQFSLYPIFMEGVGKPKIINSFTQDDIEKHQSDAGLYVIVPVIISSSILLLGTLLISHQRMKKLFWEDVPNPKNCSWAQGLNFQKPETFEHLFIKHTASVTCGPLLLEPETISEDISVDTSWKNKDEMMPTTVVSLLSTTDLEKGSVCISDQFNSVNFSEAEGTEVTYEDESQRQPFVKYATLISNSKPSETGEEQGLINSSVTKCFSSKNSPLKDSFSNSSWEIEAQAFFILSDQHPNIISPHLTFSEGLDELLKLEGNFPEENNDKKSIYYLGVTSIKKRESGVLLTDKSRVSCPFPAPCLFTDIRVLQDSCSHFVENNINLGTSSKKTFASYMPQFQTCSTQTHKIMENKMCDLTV
Briefly: FACS, 70 nM Ab, HEK293/Stat3-luc/hLEPR-FL, no Leptin. (In general: Flow cytometry measures light scatter and fluorescence of single cells or particles in a stream.)

B1: H4H18445P2 (antibody, human IgG4, V domains shown)
VH: QVQLQESGPGLVKPSQTLSLTCTVSGGSISSGGDYWSWIRQLPGKGLEWIGYIYYSGSAYYNPSLKSRGTISIDTSKNQFSLKLTSVTAADTAVYFCVKLRFLEWFLGGWFGPWGQGTLVTVSS
VL: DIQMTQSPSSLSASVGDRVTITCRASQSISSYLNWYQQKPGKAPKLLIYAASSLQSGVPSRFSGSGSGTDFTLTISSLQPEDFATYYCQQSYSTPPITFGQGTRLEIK
notes: human IgG4 Fc
As for B1, the “Luminex MFI” value amounted to 14500 MFI in test [1] and 40 MFI in test [2]. Besides, in test [3], the “500 nM Ab Blocking of 10 nM hLEPR.hFc Binding to hLeptin (% blockade)” value (“500 nM Ab Blocking … (% blockade)” below) was determined as 28%.

B2: H4H18449P2 (antibody, human IgG4, V domains shown)
VH: EVQLVESGGGLVQPGGSLRLSCVASGFTFNKYDMHWVRQTTGKGLEWVSGIDTDGDTYYPGSVKGRFTISRENAENSLYLQMNGLRVGDTAVYYCARWPWSGFYGAFDIWGQGTMVTVSS
VL: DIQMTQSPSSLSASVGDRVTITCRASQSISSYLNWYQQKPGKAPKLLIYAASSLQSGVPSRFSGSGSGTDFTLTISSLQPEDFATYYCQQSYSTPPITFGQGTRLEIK
notes: human IgG4 Fc
As for B2, the figures for the “Luminex MFI” value in test [1] and in test [2] were 43 MFI and 42 MFI, respectively. Also, in test [3], the “500 nM Ab Blocking … (% blockade)” value is 8%.

B3: H4H18417P2 (antibody, V domains shown)
VH: QVQLVESGGGVVQPGRSLRLSCAASGFTFSTYGMHWVRQAPGKGLEWVSVISYDESNKYYADSVKGRFTISRDNSKNALYLQMNSLRNEDTAVYYCARDRPFGLVTGWFDPWGQGTLVTVSS
VL: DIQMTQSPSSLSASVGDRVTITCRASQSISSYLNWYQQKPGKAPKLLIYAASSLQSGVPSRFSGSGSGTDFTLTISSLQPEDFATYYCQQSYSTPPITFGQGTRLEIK
Take B3: the “Luminex MFI” value in test [1] is 37 MFI; in test [2], 5500 MFI. In addition, the “500 nM Ab Blocking … (% blockade)” value in test [3] is 16%.

B4: H4H17319P2 (antibody, V domains shown)
VH: QVQLVESGGSVVQPGRSLRLSCAASGFTFSTYAMYWVRQTPGKGLEWVAVLYSDGSNKYYIDSVKGRFTISRDTSTNTLYLQMSSLRADDSALYYCARLNWDYWYFDLWGRGTLVTVSS
VL: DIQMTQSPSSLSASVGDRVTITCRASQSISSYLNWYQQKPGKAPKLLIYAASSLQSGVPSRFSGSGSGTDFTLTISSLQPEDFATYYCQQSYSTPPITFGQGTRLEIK
notes: also called REGN4461
As to B4, in test [4], the “EC50 (M); STAT3-Luc reporter, IMR-32/STAT3-Luc/MfLEPR cells” value (shortened to “EC50 (M) … IMR-32/STAT3-Luc/MfLEPR cells”) came out at 3.65e-10 M. The “Binding Ratio (normalized to unstained)” value in test [5] turned out to be 47 fold. The figures for the “Luminex MFI” value in test [1] and in test [2] were 8 MFI and 14 MFI, respectively. In addition, the “500 nM Ab Blocking … (% blockade)” value in test [3] came to 9%.

B5: H4H18438P2 (antibody, V domains shown)
VH: QVQLVESGGGVVQPGRSLRLSCAASGFSFNTYGMHWVRQAPGKGLEWVTIIWYDGSIKYYADSVKGRFTISRDNSKNTLYLQMNSLRAEDTAVYYCARGGYSGYLYFDYWGQGTLVTVSS
VL: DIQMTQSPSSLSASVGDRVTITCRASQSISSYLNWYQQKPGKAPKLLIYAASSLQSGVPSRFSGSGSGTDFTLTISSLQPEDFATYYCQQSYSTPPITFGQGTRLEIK
In the case of B5, in test [2], the “Luminex MFI” value worked out at 8880 MFI. For the same molecule, the “500 nM Ab Blocking … (% blockade)” value in test [3] worked out at 15%.

B6: H4H18446P2 (antibody, human IgG4, V domains shown)
VH: EVQLVESGGGLVQPGGSLRLSCAASGFTFSNYGMTWVRQAPGKGLEWVSAITGGGGSTYYSNSVKGRFTISRDNSKNTVYLRMNSVRAEDTAVYYCAKYKWNFVDDWGQGTTVTVSS
VL: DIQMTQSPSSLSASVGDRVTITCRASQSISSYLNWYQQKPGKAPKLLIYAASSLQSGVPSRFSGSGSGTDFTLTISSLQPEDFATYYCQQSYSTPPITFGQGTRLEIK
notes: human IgG4 Fc
On to B6, for which the “Luminex MFI” value in test [1] came out at 16900 MFI. The “500 nM Ab Blocking … (% blockade)” value in test [3] was -5%.

B7: H4H16650P2 (antibody, V domains shown)
VH: QVQLVESGGGVVQPGKSLRLSCVASGFTFSSDAMYWVRQAPGKGLEWVAVIYYDGNYQYYEDSVKGRFTISRDNSQNTLDLQMNSLRVDDTAVYFCARLNWDYWYLDLWGRGTLVTVSS
VL: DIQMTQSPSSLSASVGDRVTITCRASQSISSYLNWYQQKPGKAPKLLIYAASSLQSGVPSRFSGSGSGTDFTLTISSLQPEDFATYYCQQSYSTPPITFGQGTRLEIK
With B7, the “EC50 (M) … IMR-32/STAT3-Luc/MfLEPR cells” value in test [4] turned out to be 2.66e-10 M. The “Binding Ratio (normalized to unstained)” value in test [5] is 42 fold. Also, the “Luminex MFI” value turned out to be 110 MFI in test [1] and 74 MFI in test [2]. In addition, the “500 nM Ab Blocking … (% blockade)” value in test [3] is -7%.

B8: H4H16679P2 (antibody, V domains shown)
VH: QVQLVESGGGVVQPGRSLRLSCTASGFTFSSYAMYWVRQAPGKGLEWVSVIYYDGSYKYYADSVKGRFTISRDNSKNTLYLQMDSLRAEDTAVYYCASYNWNYWYFDFWGRGTLVTVSS
VL: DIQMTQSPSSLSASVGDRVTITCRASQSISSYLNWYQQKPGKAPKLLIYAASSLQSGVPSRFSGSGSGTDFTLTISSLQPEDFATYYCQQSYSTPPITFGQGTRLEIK
As for B8, in test [4], the “EC50 (M) … IMR-32/STAT3-Luc/MfLEPR cells” value was 2.49e-10 M. Besides, in test [5], the “Binding Ratio (normalized to unstained)” value came out at 51 fold. The “Luminex MFI” value in test [1] came to 42 MFI; in test [2] it was 34 MFI. Further, the “500 nM Ab Blocking … (% blockade)” value in test [3] is 7%.

B9: H4H17321P2 (antibody, V domains shown)
VH: QVQLVESGGGVVQPGRSLRLSCEASGFSSSDNAMYWVRQAPGKGLEWVSVIYHDGSYKYYEDSVKGRFTIARDNSKNTLYLQMNSLRAEDTAVYYCARYNWNHWYFDVWGRGTLVTVSS
VL: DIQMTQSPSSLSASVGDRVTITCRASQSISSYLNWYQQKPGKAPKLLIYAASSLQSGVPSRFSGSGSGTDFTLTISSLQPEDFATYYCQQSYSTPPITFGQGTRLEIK
As for B9, the “EC50 (M) … IMR-32/STAT3-Luc/MfLEPR cells” value in test [4] was 3.68e-10 M. Moreover, the “Binding Ratio (normalized to unstained)” value in test [5] came to 46 fold. The “Luminex MFI” value in test [1] came out at 14 MFI; in test [2] it was 15 MFI. In addition, the “500 nM Ab Blocking … (% blockade)” value in test [3] came to 6%.
